Results on 9 molecules are retold here after patent US20240059757A1 (VIR BIOTECHNOLOGY, published 2024).

Changes are numbered by the printed parent chain. Read-outs that look alike come from different tables or passages of the source.

Assay [1] deals with T1, SARS-CoV RBD (Sino Biological) (SARS-CoV, UniProt P59594 306-527). The assay is described as follows: BLI. Background: In BLI a coated tip is dipped into the sample, and binding shifts an interference pattern.
Assay [2] concerns the target T2, SARS-CoV Spike protein (SARS-CoV, UniProt P59594 14-1255). The assay is described as follows: cell-based or functional assay.
Assay [3] concerns the target T1, SARS-CoV RBD (Sino Biological).
For assay [4] the target is unchanged. The assay is described as follows: BLI. The source holds these as a separate data set.
For assay [5], the target named is WIV-1 spike protein (on VSV pseudovirus) (WIV-1). The experiment in a line: cell-based or functional assay.
The target in assay [6] is T2, SARS-CoV Spike protein. The experiment in a line: cell-based or functional assay. The source holds these as a separate data set.
The target of assay [7] is PANG/GD spike protein (PANG/GD). The experiment in a line: cell-based or functional assay.
Assay [8] addresses PANG/GX spike protein (PANG/GX). The experiment in a line: cell-based or functional assay.

B1: S2X259 variant antibody, VH SEQ ID NO 408 / VL SEQ ID NO 442 (antibody, V domains shown)
VH: QVQLVQSGAEVKKPGSSVKVSCKASGGIFNTYTISWVRQAPGQGLEWMGRIILMSGMANYAQKIQGRVTITADKSTSTAYMELTSLRSDDTAVYYCARGFNGNYYGWGDDDAFDISGQGTLVTVYS
VL: QTVLTQPPSVSGAPGQRVTISCTGSNSNIGAGYDVHWYQQLPGTAPKLLISGNSNRPSGVPDRFSGSKSGTSASLAITGLQAEDEADYYCQSYDSSLSGPNWVFGGGTKLTVL
A word on the Kd: it is the equilibrium constant for the complex coming apart. The low end stands for a tighter complex, the high end for a looser complex. Turning to B1, in assay [1], binding was characterised by a dissociation constant (Kd) of 0.397 nM. Besides, the “neutralization IC50” value in assay [2] is 0.0531 µg/mL.

B2: S2X259 variant antibody, VH SEQ ID NO 460 / VL SEQ ID NO 445 (antibody, V domains shown)
VH: B1 VH with M54I, M57I, S116W, Y125S
VL: B1 VL with S51V
In general, koff refers to the first-order rate constant of dissociation. Low readings indicate slow dissociation, high ones fast dissociation. By kon is commonly meant the rate constant with which the complex forms. Higher therefore signals faster complex formation. B2: in assay [3], the Kd was 1.59 nM, the koff turned out to be 0.000621 s⁻¹ and the kon was found to be 391000 M⁻¹ s⁻¹.

B3: S2X259 variant antibody, VH SEQ ID NO 459 / VL SEQ ID NO 445 (antibody, V domains shown)
VH: B1 VH with M57K, S116W, Y125S
VL: B1 VL with S51V
In assay [3], B3 yielded an equilibrium dissociation constant (Kd) of 0.792 nM, a koff of 0.000273 s⁻¹ and an on-rate (kon) of 345000 M⁻¹ s⁻¹.

B4: S2X259 variant antibody, VH SEQ ID NO 408 / VL SEQ ID NO 445 (antibody, V domains shown)
VH: B1 VH
VL: B1 VL with S51V
Take B4: the dissociation constant Kd in assay [1] was determined as 0.53 nM; in assay [4] it was 0.176 nM. Besides, the dissociation rate constant (koff) in assay [4] was roughly 7.24e-05 s⁻¹. The molecule further yielded a kon in assay [4] of 411000 M⁻¹ s⁻¹. Further, the “neutralization IC50” value in assay [5] is less than 0.1 µg/mL; in assay [6], less than 0.1 µg/mL; in assay [7], less than 0.1 µg/mL; in assay [8] it was less than 0.1 µg/mL; in assay [2], 0.036 µg/mL.

B5: S2X259 variant antibody, VH SEQ ID NO 408 / VL SEQ ID NO 444 (antibody, V domains shown)
VH: B1 VH
VL: B1 VL with S51Y
Molecule B5 had a Kd in assay [1] of 1.34 nM. For the same molecule, the “neutralization IC50” value in assay [2] stood at 0.0811 µg/mL.

B6: S2X259 variant antibody, VH SEQ ID NO 458 / VL SEQ ID NO 445 (antibody, V domains shown)
VH: B1 VH with S116W, Y125S
VL: B1 VL with S51V
On to B6, for which, in assay [4], binding was put at a Kd of 0.455 nM, the koff was 0.000173 s⁻¹ and the association rate constant (kon) was found to be 380000 M⁻¹ s⁻¹.

B7: S2X259 variant antibody, VH SEQ ID NO 408 / VL SEQ ID NO 443 (antibody, V domains shown)
VH: B1 VH
VL: B1 VL with S51A
The molecule B7 returned a Kd in assay [1] of 0.521 nM. Further, the “neutralization IC50” value in assay [5] is less than 0.1 µg/mL; in assay [6] it was less than 0.1 µg/mL; in assay [7], less than 0.1 µg/mL; in assay [8], less than 0.1 µg/mL; in assay [2] it was 0.0353 µg/mL.

B8: S2X259 variant antibody, VH SEQ ID NO 446 / VL SEQ ID NO 412 (antibody, V domains shown)
VH: B1 VH with M54I, M57I
VL: B1 VL with S51C
In assay [1], B8 returned a dissociation constant Kd of 5.58 nM.

B9: S2X259 variant antibody, VH SEQ ID NO 448 / VL SEQ ID NO 412 (antibody, V domains shown)
VH: B1 VH with N30S
VL: B1 VL with S51C
For the molecule B9, in assay [1], the binding result is “no binding”.
